Results reported in patent US20250236644A1 (University of Washington, published 2025).

Assays:
Experiment in all cases: FP titration, 1 nM peptide, hinge varied
[1] = target: T1, TAMRA-labeled effector peptide cs201B (5(6)-TAMRA label coupled on resin after synthesis)
T1 construct: also called TAMRA-cs201B
T1 peptide: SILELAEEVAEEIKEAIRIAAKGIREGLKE
Protocol: (§1) FIG. 10. Redesign of hinges to bind other target peptides. An experimentally tested hinge (top, cs201) is redesigned using a one-sided two-state design approach to bind to different target peptides. Hinges csw13 and csw20 are designed to bind to peptides cs221B and cs074B, respectively, while having a backbone conformation that is similar to the parent cs201 that binds cs201B. Left: design models, right: FP titrations using 1 nM peptide (cs201B, cs221B, cs074B, js007B) and varying concentrations of hinge (from top to bottom: cs201, csw13, csw20). csw13 is an example of a successful orthogonal redesign that specifically binds the new target peptide cs221B while not binding the parent target peptide cs201B or the off-target peptides cs074B or js007B. csw20 is a less orthogonal example that binds the new target peptide cs074B most strongly but still binds to the parent-target peptide cs201B and to the off-target peptide cs221B albeit weaker than the new target.
(§2) All FP measurements were performed at 25° C. in 96-well plates (Corning 3686) using a Synergy Neo2™ plate reader and a 530/590 nm filter cube. The buffer for all FP measurements was 20 mM Tris-HCl, 100 mM NaCl, 0.05% v/v TWEEN20 at pH 8. Titrations were carried out in 96-well format, with 4 replicates per plate and 24 data points per titration (23 steps of two-fold serial dilution of hinges in the presence of TAMRA-labeled peptide at a constant concentration between 0.1 nM and 1 nM) with a final sample volume of 80 μl per well. Titration plates were incubated overnight at room temperature before measuring to ensure complete equilibration. The polarization signal S (as calculated by the Neo2™ software) was fitted to the equation

[2] = target: T2, TAMRA-labeled effector peptide cs074B (5(6)-TAMRA label coupled on resin after synthesis)
T2 construct: Chemically synthesized; also called TAMRA-cs074B
T2 peptide: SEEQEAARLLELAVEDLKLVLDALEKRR
Protocol: as §1, §2

[3] = target: T3, TAMRA-labeled effector peptide js007B (5(6)-TAMRA label coupled on resin after synthesis)
T3 construct: also called TAMRA-js007B
T3 peptide: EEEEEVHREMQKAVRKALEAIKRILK
Protocol: as §1, §2

[4] = target: T4, TAMRA-labeled effector peptide cs221B (5(6)-TAMRA label coupled on resin after synthesis)
T4 construct: also called TAMRA-cs221B
T4 peptide: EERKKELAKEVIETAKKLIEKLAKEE
Protocol: as §1, §2

- binding result [1]: no binding
- binding result [2]: no binding
- binding result [3]: no binding
- binding result [4]: binds
B1: swapped target hinge csw13 (designed binder)
chain: MSGNEEVKKLVEEAKKYLKEAEEYIKKAKKTGNEELLEKALKLLEKALELVKKAIELDPNNKEAIEQAVEIARALNEVAELLIEEAKKTGNEELLEKALEALEAANEALKLAIENNENDKELLAEIAVELAEVGVLLAEVLIEEAKKTGDPELLKLALEVLEAAVEALELALKLDPNNEEAVELAEEAAKLLEEVAKELKEEAKKTGDPELEKLAKEAEELAKRAKELAERQRGSGSHHWGSTHHHHHH
